Results from the Human Domainome abundance scans (Beltran et al. 2025).
± gives the uncertainty stated by the source.

B1: Tudor domain-containing protein 3, residues 554 to 611; numbered along this chain, Q9H7E2 (parent)
chain: KMWKPGDECFALYWEDNKFYRAEVEALHSSGMTAVVKFIDYGNYEEVLLSNIKPIQTE

Variants of: B1
Assay: abundance fitness (aPCA) (normalised: wild type 0, dead -1); higher = more abundant; growth selection in yeast, the domain comes from the species named
Conditions: Homo sapiens

Going from M32Q to T33D, the abundance fitness falls from 0.046 ± 0.078 to -0.877 ± 0.15.

Compared with T33M, T33G is lower in abundance fitness: -0.246 ± 0.11 for the first, -0.444 ± 0.068 for the second.

Going from T33H to T33L, the abundance fitness falls from -0.126 ± 0.089 to -0.331 ± 0.065.

T33W and T33Q are within error of each other in abundance fitness: -0.321 ± 0.071 for the first, -0.287 ± 0.094 for the second.

T33Y and T33V are within error of each other in abundance fitness: -0.184 ± 0.087 for the first, -0.232 ± 0.078 for the second.

Compared with Y41P, Y41N is higher in abundance fitness: -0.446 ± 0.091 for the first, 0.035 ± 0.1 for the second.

Y41T and Y41D are within error of each other in abundance fitness: 0.132 ± 0.085 for the first, 0.055 ± 0.083 for the second.

Y41E and Y41G are within error of each other in abundance fitness: 0.042 ± 0.087 for the first, 0.07 ± 0.064 for the second.

Y41M and Y41K are within error of each other in abundance fitness: -0.086 ± 0.11 for the first, 0.103 ± 0.088 for the second.

Y41H and Y41F are within error of each other in abundance fitness: 0.028 ± 0.099 for the first, 0.162 ± 0.1 for the second.

K37D and K37W are within error of each other in abundance fitness: -0.74 ± 0.14 for the first, -0.635 ± 0.085 for the second.

K37T and K37P are within error of each other in abundance fitness: -0.923 ± 0.14 for the first, -0.948 ± 0.14 for the second.

Going from K37Y to K37L, the abundance fitness falls from -0.098 ± 0.14 to -0.719 ± 0.096.

Going from V35A to V35M, the abundance fitness rises from -0.277 ± 0.074 to -0.079 ± 0.083.

Compared with V35K, V35E is lower in abundance fitness: 0.104 ± 0.082 for the first, -0.227 ± 0.087 for the second.

V35L and V35Q are within error of each other in abundance fitness: -0.011 ± 0.063 for the first, 0.058 ± 0.081 for the second.

V35T and V35R are within error of each other in abundance fitness: 0.104 ± 0.069 for the first, 0.129 ± 0.054 for the second.

Going from V35H to E15R, the abundance fitness rises from -0.403 ± 0.15 to 0.022 ± 0.056.

First: E15D
Second: E15G
The abundance fitness of the first is lower: -0.336 ± 0.12 for the first, -0.142 ± 0.062 for the second.

First: E15Q
Second: L49S
The abundance fitness of the first is higher: -0.111 ± 0.11 for the first, -0.645 ± 0.07 for the second.

L49N and L49E are within error of each other in abundance fitness: -1.05 ± 0.19 for the first, -0.924 ± 0.11 for the second.

Going from L49D to L49Y, the abundance fitness rises from -0.886 ± 0.12 to -0.464 ± 0.1.

L49M and L49V are within error of each other in abundance fitness: -0.032 ± 0.081 for the first, -0.046 ± 0.058 for the second.

F10I and F10Y are within error of each other in abundance fitness: -0.076 ± 0.1 for the first, 0.026 ± 0.088 for the second.

F10H and F10C are within error of each other in abundance fitness: -0.255 ± 0.11 for the first, -0.2 ± 0.092 for the second.

Y13R and Y13N are within error of each other in abundance fitness: 0.069 ± 0.055 for the first, 0 ± 0.1 for the second.

Going from Y13T to Y13V, the abundance fitness falls from -0.323 ± 0.089 to -0.897 ± 0.1.

T57G and T57R are within error of each other in abundance fitness: 0.029 ± 0.055 for the first, -0.047 ± 0.059 for the second.

T57I and T57D are within error of each other in abundance fitness: -0.036 ± 0.11 for the first, 0.083 ± 0.074 for the second.

T57C and T57N are within error of each other in abundance fitness: -0.005 ± 0.085 for the first, 0.019 ± 0.11 for the second.

Going from T57Q to C9P, the abundance fitness falls from 0.02 ± 0.14 to -0.905 ± 0.12.

First: C9K
Second: E8F
The abundance fitness of the first is lower: -0.915 ± 0.17 for the first, -0.118 ± 0.12 for the second.

E8C and E8Y are within error of each other in abundance fitness: -0.066 ± 0.086 for the first, -0.079 ± 0.15 for the second.

Compared with E8G, E8Q is higher in abundance fitness: -0.264 ± 0.054 for the first, -0.055 ± 0.088 for the second.

E8L and E25W are within error of each other in abundance fitness: -0.016 ± 0.075 for the first, -0.101 ± 0.074 for the second.

E25C and E25D are within error of each other in abundance fitness: -0.019 ± 0.097 for the first, 0.027 ± 0.14 for the second.

E25I and E25F are within error of each other in abundance fitness: 0.011 ± 0.11 for the first, -0.041 ± 0.098 for the second.

E25L and E25M are within error of each other in abundance fitness: -0.038 ± 0.06 for the first, -0.025 ± 0.078 for the second.

Compared with E25Q, V47R is lower in abundance fitness: 0.077 ± 0.075 for the first, -0.937 ± 0.073 for the second.

V47E and V47Y are within error of each other in abundance fitness: -0.925 ± 0.11 for the first, -0.886 ± 0.23 for the second.

V47T and V47G are within error of each other in abundance fitness: -0.966 ± 0.17 for the first, -0.873 ± 0.068 for the second.

First: V47I
Second: V47F
The abundance fitness of the first is higher: -0.134 ± 0.12 for the first, -0.636 ± 0.17 for the second.

Compared with P5D, P5S is higher in abundance fitness: -0.763 ± 0.15 for the first, -0.113 ± 0.065 for the second.

P5V and S50C are within error of each other in abundance fitness: -0.034 ± 0.07 for the first, -0.08 ± 0.076 for the second.

S50M and S50R are within error of each other in abundance fitness: -0.255 ± 0.09 for the first, -0.155 ± 0.056 for the second.

Going from S50F to S29T, the abundance fitness rises from -0.605 ± 0.093 to -0.012 ± 0.074.

S29E and S29R are within error of each other in abundance fitness: -0.008 ± 0.081 for the first, -0.133 ± 0.053 for the second.

S29N and S29V are within error of each other in abundance fitness: -0.062 ± 0.12 for the first, 0.118 ± 0.064 for the second.

First: V24K
Second: V24I
The abundance fitness of the first is lower: -0.849 ± 0.17 for the first, -0.027 ± 0.13 for the second.

V24T and V24C are within error of each other in abundance fitness: -0.863 ± 0.11 for the first, -0.949 ± 0.13 for the second.

V24D and V24P are within error of each other in abundance fitness: -1.03 ± 0.28 for the first, -0.906 ± 0.11 for the second.

V24N and V24Q are within error of each other in abundance fitness: -0.825 ± 0.15 for the first, -0.986 ± 0.12 for the second.

Compared with V24S, V24L is higher in abundance fitness: -0.751 ± 0.075 for the first, -0.215 ± 0.059 for the second.

K1H and K1R are within error of each other in abundance fitness: -0.003 ± 0.25 for the first, -0.326 ± 0.1 for the second.

K1E and K1G are within error of each other in abundance fitness: -0.143 ± 0.2 for the first, -0.138 ± 0.14 for the second.

G31A and G31Q are within error of each other in abundance fitness: 0.015 ± 0.076 for the first, -0.043 ± 0.17 for the second.

G31T and G31H are within error of each other in abundance fitness: 0.02 ± 0.09 for the first, -0.099 ± 0.088 for the second.

Going from G31C to G31W, the abundance fitness falls from -0.12 ± 0.069 to -0.658 ± 0.099.

First: G31Y
Second: N17E
The abundance fitness of the first is lower: -0.269 ± 0.13 for the first, -0.021 ± 0.08 for the second.

N17Q and N17H are within error of each other in abundance fitness: -0.1 ± 0.092 for the first, -0.29 ± 0.15 for the second.

Going from N17F to N17S, the abundance fitness rises from -0.65 ± 0.23 to -0.117 ± 0.072.

N17D and M2F are within error of each other in abundance fitness: 0.034 ± 0.1 for the first, -0.194 ± 0.15 for the second.

M2Y and M2G are within error of each other in abundance fitness: -0.15 ± 0.15 for the first, -0.052 ± 0.068 for the second.

M2P and M2I are within error of each other in abundance fitness: -0.36 ± 0.1 for the first, -0.201 ± 0.12 for the second.

M2E and M2A are within error of each other in abundance fitness: -0.19 ± 0.083 for the first, -0.192 ± 0.075 for the second.

M2C and F19I are within error of each other in abundance fitness: -0.286 ± 0.14 for the first, -0.649 ± 0.27 for the second.

F19K and F19E are within error of each other in abundance fitness: -0.85 ± 0.16 for the first, -0.706 ± 0.099 for the second.

F19L and F19H are within error of each other in abundance fitness: -0.472 ± 0.08 for the first, -0.457 ± 0.17 for the second.

First: F38H
Second: F38Y
The abundance fitness of the first is lower: -0.94 ± 0.23 for the first, -0.479 ± 0.13 for the second.

F38T and F38A are within error of each other in abundance fitness: -0.987 ± 0.16 for the first, -0.878 ± 0.091 for the second.

F38I and F38M are within error of each other in abundance fitness: -0.852 ± 0.26 for the first, -0.722 ± 0.15 for the second.

K53T and K53Y are within error of each other in abundance fitness: -0.109 ± 0.096 for the first, -0.214 ± 0.087 for the second.

First: K53L
Second: K53N
The abundance fitness of the first is higher: -0.217 ± 0.07 for the first, -0.378 ± 0.087 for the second.

Going from K53C to K53P, the abundance fitness falls from -0.238 ± 0.087 to -0.809 ± 0.15.

Compared with K53D, D40N is higher in abundance fitness: -0.659 ± 0.092 for the first, -0.187 ± 0.12 for the second.

R21Y and R21I are within error of each other in abundance fitness: -0.662 ± 0.11 for the first, -0.434 ± 0.13 for the second.

First: R21G
Second: R21L
The abundance fitness of the first is lower: -0.978 ± 0.098 for the first, -0.177 ± 0.058 for the second.

Compared with R21T, R21A is higher in abundance fitness: -0.542 ± 0.094 for the first, -0.289 ± 0.067 for the second.

R21E and K4L are within error of each other in abundance fitness: -0.301 ± 0.099 for the first, -0.287 ± 0.065 for the second.

Going from K4N to K4D, the abundance fitness falls from -0.233 ± 0.13 to -0.678 ± 0.13.

Going from K4A to G42R, the abundance fitness falls from -0.092 ± 0.082 to -0.607 ± 0.069.

G42H and G42S are within error of each other in abundance fitness: -0.395 ± 0.18 for the first, -0.378 ± 0.13 for the second.

Compared with G42W, G42M is higher in abundance fitness: -0.695 ± 0.089 for the first, -0.319 ± 0.18 for the second.

Work on G42E yielded an abundance fitness of 0.005 ± 0.097.
